Patent US20070099822A1, “Regulation of tissue mineralization and phosphate metabolism by asarm peptides” (priority 2003, published 2007)
“Also recorded” adds a separate entry of the source.

T1: MEPE-PHEX interaction (Homo sapiens, UniProt P78562)
T1 construct: to generate a soluble, secreted form of PHEX; made in house; host or cells: secPHEX: mammalian cells (gift, University of Montreal); MEPE: S. frugiperda insect cells
T1 sequence (P78562 46-749 limits assumed): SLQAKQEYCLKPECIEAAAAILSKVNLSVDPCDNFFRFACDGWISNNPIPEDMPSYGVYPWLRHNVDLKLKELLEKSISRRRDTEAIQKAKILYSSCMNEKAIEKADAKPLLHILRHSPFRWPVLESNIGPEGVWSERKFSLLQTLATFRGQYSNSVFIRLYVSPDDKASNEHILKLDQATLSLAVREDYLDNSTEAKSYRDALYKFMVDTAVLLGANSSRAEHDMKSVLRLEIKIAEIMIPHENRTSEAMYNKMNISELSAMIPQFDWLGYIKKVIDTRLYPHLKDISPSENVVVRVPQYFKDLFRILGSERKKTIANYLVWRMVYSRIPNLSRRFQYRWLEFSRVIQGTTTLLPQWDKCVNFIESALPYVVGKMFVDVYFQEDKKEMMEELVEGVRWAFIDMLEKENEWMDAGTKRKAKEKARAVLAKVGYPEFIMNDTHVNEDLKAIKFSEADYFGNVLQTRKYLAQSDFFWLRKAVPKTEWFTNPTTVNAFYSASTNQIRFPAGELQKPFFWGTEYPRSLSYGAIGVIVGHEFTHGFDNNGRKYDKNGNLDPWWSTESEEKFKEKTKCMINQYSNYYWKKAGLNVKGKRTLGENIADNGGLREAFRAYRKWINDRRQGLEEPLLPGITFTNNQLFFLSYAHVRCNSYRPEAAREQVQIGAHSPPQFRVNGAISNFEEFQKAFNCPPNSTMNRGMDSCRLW

B1: Hu-MEPE: purified insect expressed full-length recombinant human MEPE (Matrix Extracellular Phosphoglycoprotein) (protein)
chain: PTFQPQTEKTKQSCVEEQRQEEKNKDNIGFHHLGKRINQELSSKENIVQERKKDLSLSEASENKGSSKSQNYFTNRQRLNKEYSISNKENTHNGLRMSIYPKSTGNKGFEDGDDAISKLHDQEEYGAALIRNNMQHIMGPVTAIKLLGEENKENTPRNVLNIIPASMNYAKAHSKDKKKPQRDSQAQKSPVKSKSTHRIQHNIDYLKHLSKVKKIPSDFEGSGYTDLQERGDNDISPFSGDGQPFKDIPGKGEATGPDLEGKDIQTGFAGPSEAESTHLDTKKPGYNEIPEREENGGNTIGTRDETAKEADAVDVSLVEGSNDIMGSTNFKELPGREGNRVDAGSQNAHQGKVEFHYPPAPSKEKRKEGSSDAAESTNYNEIPKNGKGSTRKGVDHSNRNQATLNEKQRFPSKGKSQGLPIPSRGLDNEIKNEMDSFNGPSHENIITHGRKYHYVPHRQNNSTRNKGMPQGKGSWGRQPHSNRRFSSRRRDDSSESSDSGSSSESDGD

How the values were obtained:
[1] = biological target: T1, MEPE-PHEX interaction; assay: Surface plasmon resonance, peptide solution competition of secPHEX-MEPE binding
From the text: Surface Plasmon Resonance: Synthetic peptides & competitive PHEX-MEPE binding studies. For these experiments CM-5 chips containing flow-cells immobilized with MEPE, PHEX and IgG ligands at 6000 RU were used. Just prior to SPR injection, stock solution of specific-peptide (as defined for each experiment; see Table 1), and dissolved in analyte buffer (HBS-P—Zn) […] The following equation was used to compute KDapp values: RU=Bmax/inhib×(peptide(μM))/KDapp+(peptide(μM)). The Bmax/inh value represents the maximal percentage inhibition change in RU (i.e., PHEX-MEPE binding) relative to the “non-peptide” control (0% inhibition of binding), using a constant analyte flow-solution of secPHEX of 250 nM against immobilized MEPE ligand at 6000 RU. […] The control MEPE-RGD peptide had no effect on MEPE-PHEX interactions.

[2] = system: mouse osteoblast cell-line 2T3; assay: Mineralized bone matrix formation assay (von Kossa), BMP2-induced; type: cell-based; conditions: 2T3 cells; for effect on BMP2-mediated mineralization (von Kossa staining): Hu-MEPE 10-800 ng/mL, ASARM-peptide 60 and 300 ng/mL, control peptide 300 ng/mL
From the text: Mineralized bone matrix formation assay. A mouse osteoblast cell-line (2T3-cells) were monitored using a mineralized matrix formation assay as described by Bhargava et al. (Ultrastructural analysis of bone nodules formed in vitro by isolated fetal rat calvaria cells. Bone 9:155-63, 1988) and cultured as described previously (Bhargava et al., supra; Chen et al. Differential roles for bone morphogenetic protein (BMP) receptor type IB and IA in differentiation and specification of mesenchymal precursor cells to osteoblast and adipocyte lineages. J Cell Biol 142:295-305, 1998; and Zhao, et al. Bone morphogenetic protein receptor signaling is necessary for normal murine postnatal bone formation. J Cell Biol 157:1049-60, 2002). Mineralization of the murine osteoblastic 2T3 cell-line has been extensively studied using physical techniques, electron microscopy and histological techniques. This cell line (2T3) undergoes exogenous BMP2-induced mineralized-matrix indistinguishable from normal bone-mineral hydroxyapatite in-vitro (Bhargava et al., supra; Chen et al., supra; and Zhao et al., supra). The cells were plated in 24-well culture plates at density of 2×10^4 cells/well and cultured with minimal essential medium (MEM) supplemented with 10% FCS. When the cells reached confluency (day 0), the medium was changed to MEM containing 5% FCS, 100 μg/mL ascorbic acid and 5 mM β-glycerol phosphate with or without 100 ng/mL of BMP-2. The effects of Hu-MEPE, MEPE ASARM-peptide and control peptide at different doses (see results section) in the absence and presence of BMP2 were measured using the von Kossa stain for mineralization. The medium was changed every other day and fresh reagents were added. Von Kossa stain of mineralized bone matrix was performed as follows. The cell cultures were washed with PBS twice, fixed in phosphate buffered formalin for 10 min, and then washed with water, and serially dehydrated in 70%, 95%, and 100% ethanol, twice each and air dried. The plates were rehydrated from 100% to 95% to 80% ethanol to water before staining. The water was removed, a 2% silver nitrate solution was added, and the plates were exposed to sunlight for 20 min, after which the plates were rinsed with water. 5% sodium thiosulfate was added for 3 min and the plates were then rinsed with water. The modified van Gieson stain was then used as a counterstain after the von Kossa stain. The unmineralized collagen matrix can be recognized by the yellow/red van Gieson stain. The acid fuchsin solution (5 part of 1% acid fuchsin, 95 part of picric acid, and 0.25 part of 12 M HCl) was added for 5 min. The plates were washed with water, and then 2×95% ethanol and 2×100% ethanol, and dried for image analysis. The area of von Kossa stained matrix was quantitated as previously described (Chen et al., supra). Briefly matrix was quantified by automated image analysis using a video analysis program (Jandel Scientific, San Rafael Calif.) and also a Bio-Rad (Hercules, Calif.) Quantity-1 image analysis capture program. A video screen camera (CCD/RGB; Sony Corp., Park Ridge, N.J.) linked to a microscope (model BH2; Olympus Corp., Precision Instruments Division, Lake Success, N.Y.) equipped with metallurgical lens was used to image plates.

[3] = system: CHO cell tumors; assay: Example IV: CHO cell tumors expressing MEPE in athymic nude mice; type: in vivo
Experimental: Six groups of athymic nude mice were injected with the one of the following: normal saline, CHO cells, CHO cells containing an empty vector, CHO cells expressing MEPE (CHO-MEPE), CHO cells expressing PHEX (CHO-PHEX), and CHO cells expressing PHEX and MEPE (CHO-PHEX-MEPE). Tumor size was assessed based on combined tumor weight at nine different time points.

Molecule	Kd ([1]; 250 nM secPHEX, MEPE 6000 RU, read-out: apparent KDapp, solution competition of MEPE-PHEX binding)	inhibition of MEPE-PHEX interaction ([1]; peptide pre-mixed with secPHEX, MEPE-RGD up to 85 μM)	effect on BMP2-mediated mineralization (von Kossa staining) ([2]; BMP2 100 ng/mL, listed as MEPE ASARM-peptide)	effect on BMP2-mediated mineralization (von Kossa staining) ([2]; BMP2 100 ng/mL, listed as MEPE-ASARM-peptide)	effect on BMP2-mediated mineralization at concentrations above 100 ng/mL ([2]; BMP2 100 ng/mL, Hu-MEPE above 100 ng/mL)	effect on BMP2-mediated mineralization (von Kossa staining) ([2]; BMP2 100 ng/mL)	mineralization in the absence of BMP2 ([2]; no BMP2)	tumor size (combined tumor weight) ([3]; CHO cells expressing MEPE vs CHO cells with empty vector, nude mice)	1,25-vitamin D3 serum levels ([3]; CHO-MEPE and CHO-PHEX-MEPE groups vs groups not expressing MEPE)	serum phosphate ([3]; after thirteen days, CHO-MEPE and CHO-PHEX-MEPE groups)
H-CFSSRRRDDSSESSDSGSSSESDGD-OH [ASARM-peptide]	~35 µM	able to inhibit; also recorded: dramatic dose-dependent inhibition	dose-dependently inhibits	inhibit						
B1					very effective inhibitors; also recorded: completely inhibited mineralization	dose dependently and reproducibly inhibited mineralization; also recorded: inhibit; also recorded: highly significant inhibition	no effect on mineralization; also recorded: indistinguishable to control cells	significantly reduced; also recorded: dramatically reduced size	decrease in serum levels	hypophosphatemia; also recorded: decrease in serum phosphate
